# Source: patent publication US20080093219A1
# Target: T4 tail-fiber protein P37 SΔ1ras2 (gene 37 SΔ1 deletion with the H-ras mAb epitope inserted at the junction), on SΔ1ras2 phage (bacteriophage T4; bacteriophage T4 with human H-ras insert) (UniProt P03744)
# Assay: cell-based or functional assay
substance,measurement,value
rat monoclonal IgG antibody Y13-259,phage inactivated after mAb and anti-rat IgG serum,85%
same,"phage inactivated, control treatment (mAb with buffer only)",99.8%
same,"phage inactivation, time course of mAb treatment",99.9%
